The EC50 is the concentration that produces a half-maximal response. A high value points to a need for much substance.

The values below come from US20230406951A1 (Pfizer, published 2023).

The target of this assay is T1, human TNFR2 (human, UniProt P20333 23-461).
T1 construct: expressed on the surface of CHO cells; also called HuTNFR2; TNFRSF1B
T1 sequence: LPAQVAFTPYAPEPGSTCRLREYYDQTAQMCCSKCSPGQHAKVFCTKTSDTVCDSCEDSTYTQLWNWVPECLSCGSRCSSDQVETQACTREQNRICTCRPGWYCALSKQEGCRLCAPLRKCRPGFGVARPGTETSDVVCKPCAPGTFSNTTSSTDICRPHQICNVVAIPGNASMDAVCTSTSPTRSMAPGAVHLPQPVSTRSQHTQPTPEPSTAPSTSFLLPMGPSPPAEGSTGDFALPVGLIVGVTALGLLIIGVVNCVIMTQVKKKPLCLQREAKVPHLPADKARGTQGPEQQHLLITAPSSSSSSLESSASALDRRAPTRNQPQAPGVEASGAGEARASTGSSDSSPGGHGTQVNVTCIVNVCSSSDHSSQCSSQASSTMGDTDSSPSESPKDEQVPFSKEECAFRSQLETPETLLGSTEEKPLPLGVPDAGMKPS
The assay is described as follows: binding to human TNFR2 CHO cells, TetraFab format.

B1: TetraFab 2209 (antibody, human IgG1, kappa)
heavy: QVQLVQSGAEVKKPGASVKVSCKVSGFSFPSSGVDWVRQAPGQGLEWLGVTWGVGSTHYNQKFQGRVTITKDTSKSTVYMELSSLRSEDTAVYYCASGEWDEGFVYWGQGTLVTVSSASTKGPSVFPLAPSSKSTSGGTAALGCLVKDYFPEPVTVSWNSGALTSGVHTFPAVLQSSGLYSLSSVVTVPSSSLGTQTYICNVNHKPSNTKVDKKVEPKSCGGGGSQVQLVQSGAEVKKPGASVKVSCKVSGFSFPSSGVDWVRQAPGQGLEWLGVTWGVGSTHYNQKFQGRVTITKDTSKSTVYMELSSLRSEDTAVYYCASGEWDEGFVYWGQGTLVTVSSASTKGPSVFPLAPSSKSTSGGTAALGCLVKDYFPEPVTVSWNSGALTSGVHTFPAVLQSSGLYSLSSVVTVPSSSLGTQTYICNVNHKPSNTKVDKKVEPKSCDKTHTCPPCPAPEAAGAPSVFLFPPKPKDTLMISRTPEVTCVVVDVSHEDPEVKFNWYVDGVEVHNAKTKPREEQYNSTYRVVSVLTVLHQDWLNGKEYKCKVSNKALPAPIEKTISKAKGQPREPQVYTLPPSREEMTKNQVSLTCLVKGFYPSDIAVEWESNGQPENNYKTTPPVLDSDGSFFLYSKLTVDKSRWQQGNVFSCSVMHEALHNHYTQKSLSLSPGK
light: DIQLTQSPSFLSASVGDRVTITCKASQNVGTAVAWYQQKPGKAPKLLIYAASTLQSGVPSRFSGSGSGTEFTLTISSLQPEDFATYYCLQYSSYPLTFGGGTKVEIKRTVAAPSVFIFPPSDEQLKSGVTASVVCLLNNFYPREAKVQWKVDNALQSGNSQESVTEQDSKDSTYSLSSTLTLSKADYEKHKVYACEVTHQGLSSPVTKSFNRGEC
notes: TetraFab; parental heavy chain
As for B1, the midpoint of the response, the EC50, lay at 0.15 nM.

B2: TetraFab 2208 (antibody, human IgG1, kappa)
heavy: QVQLVQSGAEVKKPGASVKVSCKVSGFSFPSSGVDWVRQAPGQGLEWLGVTWGVGSTHYNQKFQGRVTITKDTSKSTVYMELSSLRSEDTAVYYCASGEWDEGFVYWGQGTLVTVSSASTKGPSVFPLAPSSKSTSGGTAALGCLVKDYFPEPVTVSWNSGALTSGVHTFPAVLQSSGLYSLSSVVTVPSSSLGTQTYICNVNHKPSNTKVDKKVEPKSCGGGGSQVQLVQSGAEVKKPGASVKVSCKVSGFSFPSSGVDWVRQAPGQGLEWLGVTWGVGSTHYNQKFQGRVTITKDTSKSTVYMELSSLRSEDTAVYYCASGEWDEGFVYWGQGTLVTVSSASTKGPSVFPLAPSSKSTSGGTAALGCLVKDYFPEPVTVSWNSGALTSGVHTFPAVLQSSGLYSLSSVVTVPSSSLGTQTYICNVNHKPSNTKVDKKVEPKSCDKTHTCPPCPAPEAAGAPSVFLFPPKPKDTLMISRTPEVTCVVVDVSHEDPEVKFNWYVDGVEVHNAKTKPREEQYNSTYRVVSVLTVLHQDWLNGKEYKCKVSNKALPAPIEKTISKAKGQPREPQVYTLPPSREEMTKNQVSLTCLVKGFYPSDIAVEWESNGQPENNYKTTPPVLDSDGSFFLYSKLTVDKSRWQQGNVFSCSVMHEALHNHYTQKSLSLSPGK
light: DIQLTQSPSFLSASVGDRVTITCKASQNVGTAVAWYQQKPGKAPKLLIYAASTLQSGVPSRFSGSGSGTEFTLTISSLQPEDFATYYCLQKSSYPLTFGGGTKVEIKRTVAAPSVFIFPPSDEQLKSGVTASVVCLLNNFYPREAKVQWKVDNALQSGNSQESVTEQDSKDSTYSLSSTLTLSKADYEKHKVYACEVTHQGLSSPVTKSFNRGEC
notes: as for B1
B2 had an EC50 of 2.3 nM.

B3: TetraFab 2053 (antibody, human IgG1, kappa)
heavy: QVQLVQSGAEVKKPGASVKVSCKVSGFSFPSSGVDWVRQAPGQGLEWLGVTWGVGSTHYNQKFQGRVTITKDTSKSTVYMELSSLRSEDTAVYYCASGEWDEGFVYWGQGTLVTVSSASTKGPSVFPLAPSSKSTSGGTAALGCLVKDYFPEPVTVSWNSGALTSGVHTFPAVLQSSGLYSLSSVVTVPSSSLGTQTYICNVNHKPSNTKVDKKVEPKSCGGGGSQVQLVQSGAEVKKPGASVKVSCKVSGFSFPSSGVDWVRQAPGQGLEWLGVTWGVGSTHYNQKFQGRVTITKDTSKSTVYMELSSLRSEDTAVYYCASGEWDEGFVYWGQGTLVTVSSASTKGPSVFPLAPSSKSTSGGTAALGCLVKDYFPEPVTVSWNSGALTSGVHTFPAVLQSSGLYSLSSVVTVPSSSLGTQTYICNVNHKPSNTKVDKKVEPKSCDKTHTCPPCPAPEAAGAPSVFLFPPKPKDTLMISRTPEVTCVVVDVSHEDPEVKFNWYVDGVEVHNAKTKPREEQYNSTYRVVSVLTVLHQDWLNGKEYKCKVSNKALPAPIEKTISKAKGQPREPQVYTLPPSREEMTKNQVSLTCLVKGFYPSDIAVEWESNGQPENNYKTTPPVLDSDGSFFLYSKLTVDKSRWQQGNVFSCSVMHEALHNHYTQKSLSLSPGK
light: DIQLTQSPSFLSASVGDRVTITCKASQNVGTAVAWYQQKPGKAPKLLIYAASTLQSGVPSRFSGSGSGTEFTLTISSLQPEDFATYYCQQYSSYPLTFGGGTKVEIKRTVAAPSVFIFPPSDEQLKSGVTASVVCLLNNFYPREAKVQWKVDNALQSGNSQESVTEQDSKDSTYSLSSTLTLSKADYEKHKVYACEVTHQGLSSPVTKSFNRGEC
notes: dual Fab heavy chain (outer VH-CH1, G4S linker, inner VH-CH1, human IgG1 Fc) pairing with 4 light chains; also called TF2053
The molecule B3 registered an EC50 of 0.7 nM.
